Experimental findings from PMC10081965 (Structure (London, England : 1993), 2023) are described below.

One assay concerns the target UBQLN2 UBL (26–103) (UniProt Q9UHD9 26-103). The experiment in a line: NMR titration.
The target of another assay is UBQLN2 (UniProt Q9UHD9 1-624). The experiment in a line: recruitment to biomolecular condensates in vitro.

UBQLN2 UBL (26–103), sequence (Q9UHD9 26-103): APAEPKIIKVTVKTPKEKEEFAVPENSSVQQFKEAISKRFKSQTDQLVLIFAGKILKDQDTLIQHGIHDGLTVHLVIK

B1: UBQLN1 (514–589, F547Y) (domain or fragment, UniProt Q9UMX0 514-589, looked up)
chain: TAGTTEPGHQQFIQQMLQALAGVNPQLQNPEVRYQQQLEQLSAMGFLNREANLQALIATGGDINAAIERLLGSQPS
For B1, in the assay with UBQLN2 UBL (26–103), the binding result is “binds”.

B2: AZUL-mEGFP (E6AP isoform II 24–87 with a C-terminal mEGFP) (domain or fragment, UniProt Q05086 24-87, looked up)
chain: MKRAAAKHLIERYYHQLTEGCGNEACTNEFCASCPTFLRMDNNAAAIKALELYKINAKLCDPHP
Turning to B2, the binding result with UBQLN2 is “binds”.
